Reference: IntAct's records for PubMed 29039417

B1: Protein PTHB1 (Homo sapiens), Q3SYG4 (parent)
chain: MSLFKARDWWSTILGDKEEFDQGCLCLANVDNSGNGQDKIIVGSFMGYLRIFSPHPAKTGDGAQAEDLLLEVDLRDPVLQVEVGKFVSGTEMLHLAVLHSRKLCVYSVSGTLGNVEHGNQCQMKLMYEHNLQRTACNMTYGSFGGVKGRDLICIQSMDGMLMVFEQESYAFGRFLPGFLLPGPLAYSSRTDSFLTVSSCQQVESYKYQVLAFATDADKRQETEQQKLGSGKRLVVDWTLNIGEQALDICIVSFNQSASSVFVLGERNFFCLKDNGQIRFMKKLDWSPSCFLPYCSVSEGTINTLIGNHNNMLHIYQDVTLKWATQLPHIPVAVRVGCLHDLKGVIVTLSDDGHLQCSYLGTDPSLFQAPNVQSRELNYDELDVEMKELQKIIKDVNKSQGVWPMTEREDDLNVSVVVSPNFDSVSQATDVEVGTDLVPSVTVKVTLQNRVILQKAKLSVYVQPPLELTCDQFTFEFMTPDLTRTVSFSVYLKRSYTPSELEGNAVVSYSRPTDRNPDGIPRVIQCKFRLPLKLICLPGQPSKTASHKITIDTNKSPVSLLSLFPGFASQSDDDQVNVMGFHFLGGARITVLASKTSQRYRIQSEQFEDLWLITNELILRLQEYFEKQGVKDFACSFSGSIPLQEYFELIDHHFELRINGEKLEELLSERAVQFRAIQRRLLARFKDKTPAPLQHLDTLLDGTYKQVIALADAVEENQGNLFQSFTRLKSATHLVILLIALWQKLSADQVAILEAAFLPLQEDTQELGWEETVDAAISHLLKTCLSKSSKEQALNLNSQLNIPKDTSQLKKHITLLCDRLSKGGRLCLSTDAAAPQTMVMPGGCTTIPESDLEERSVEQDSTELFTNHRHLTAETPRPEVSPLQGVSE
partner: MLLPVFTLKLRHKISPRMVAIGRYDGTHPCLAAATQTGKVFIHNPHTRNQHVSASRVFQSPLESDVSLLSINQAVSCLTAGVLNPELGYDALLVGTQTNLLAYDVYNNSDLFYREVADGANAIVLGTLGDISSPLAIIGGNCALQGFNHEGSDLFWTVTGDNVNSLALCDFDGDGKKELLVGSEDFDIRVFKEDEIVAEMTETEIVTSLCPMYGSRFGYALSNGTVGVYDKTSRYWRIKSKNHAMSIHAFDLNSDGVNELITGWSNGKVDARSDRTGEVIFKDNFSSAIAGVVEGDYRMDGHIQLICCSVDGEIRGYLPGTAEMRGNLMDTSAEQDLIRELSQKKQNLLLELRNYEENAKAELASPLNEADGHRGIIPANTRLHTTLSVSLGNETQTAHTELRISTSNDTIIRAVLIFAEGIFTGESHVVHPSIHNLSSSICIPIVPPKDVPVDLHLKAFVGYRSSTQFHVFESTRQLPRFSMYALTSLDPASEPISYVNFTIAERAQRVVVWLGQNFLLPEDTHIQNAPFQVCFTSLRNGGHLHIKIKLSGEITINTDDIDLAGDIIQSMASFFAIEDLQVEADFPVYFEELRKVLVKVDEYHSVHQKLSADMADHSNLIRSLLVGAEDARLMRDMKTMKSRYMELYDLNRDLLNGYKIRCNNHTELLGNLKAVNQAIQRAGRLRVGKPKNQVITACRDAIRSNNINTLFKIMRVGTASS

Variants of: B1
Conditions: with bbs2_human BBS2, Q9BXC9

Row | Variant | effect of a mutation on the interaction
1 | K810A | with no effect
2 | K810E | with no effect
3 | H811A | with no effect
4 | H811E | with no effect
5 | H811K | with no effect
6 | I812A | with no effect
7 | I812E | with no effect
8 | I812K | with no effect
9 | T813A | with no effect
10 | T813C | disrupting interaction strength
11 | T813E | with no effect
12 | T813K | with no effect
13 | L814A | with no effect
14 | L814E | with no effect
15 | L814K | with no effect
16 | L815A | with no effect
17 | L815E | with no effect
18 | L815F | disrupting interaction strength
19 | L815K | with no effect
20 | C816A | with no effect
21 | C816E | with no effect
22 | C816K | with no effect
23 | D817A | with no effect

Row | Variant | effect of a mutation on the interaction
24 | D817E | with no effect
25 | D817K | with no effect
26 | R818A | with no effect
27 | R818E | with no effect
28 | R818K | with no effect
29 | L819A | with no effect
30 | L819E | with no effect
31 | L819K | with no effect
32 | S820A | with no effect
33 | S820E | with no effect
34 | S820K | with no effect
35 | K821A | with no effect
36 | K821E | with no effect
37 | G822A | with no effect
38 | G822E | with no effect
39 | G822K | with no effect
40 | G822R | disrupting interaction strength
41 | G823A | with no effect
42 | G823E | with no effect
43 | G823K | with no effect
44 | R824A | with no effect
45 | R824E | with no effect
46 | R824K | with no effect

Row | Variant | effect of a mutation on the interaction
47 | R824W | disrupting interaction strength
48 | L825A | with no effect
49 | L825E | with no effect
50 | L825K | with no effect
51 | C826A | with no effect
52 | C826E | with no effect
53 | C826K | with no effect
54 | L827A | disrupting interaction strength
55 | L827E | with no effect
56 | L827K | with no effect
57 | S828A | with no effect
58 | S828E | with no effect
59 | S828K | with no effect
60 | T829A | with no effect
61 | T829E | with no effect
62 | T829K | with no effect
63 | D830A | with no effect
64 | D830E | with no effect
65 | D830K | with no effect
66 | A831E | with no effect
67 | A831K | with no effect
68 | A832E | with no effect
69 | A832K | with no effect

Row | Variant | effect of a mutation on the interaction
70 | A833E | with no effect
71 | A833K | with no effect
72 | A833S | disrupting interaction strength
73 | P834A | with no effect
74 | P834E | with no effect
75 | P834K | with no effect
76 | Q835A | with no effect
77 | Q835E | with no effect
78 | Q835K | with no effect
79 | Q835M | disrupting interaction strength
80 | T836A | with no effect
81 | T836E | with no effect
82 | T836K | with no effect
83 | M837A | with no effect
84 | M837E | with no effect
85 | M837K | disrupting interaction strength
86 | V838A | disrupting interaction strength
87 | V838E | with no effect
88 | V838K | with no effect
89 | M839A | with no effect
90 | M839E | with no effect
91 | M839K | disrupting interaction strength
92 | P840A | disrupting interaction strength

Row | Variant | effect of a mutation on the interaction
93 | P840E | with no effect
94 | P840K | with no effect
95 | G841A | with no effect
96 | G841E | with no effect
97 | G841K | with no effect
98 | G842A | with no effect
99 | G842E | with no effect
100 | G842K | with no effect
101 | C843A | with no effect
102 | C843E | with no effect
103 | C843K | with no effect
104 | T844A | with no effect
105 | T844E | with no effect
106 | T844K | with no effect
107 | T845A | with no effect
108 | T845E | with no effect
109 | T845K | with no effect
110 | I846A | with no effect
111 | I846E | with no effect
112 | I846K | with no effect
113 | P847A | with no effect
114 | P847E | with no effect
115 | P847K | with no effect

Row | Variant | effect of a mutation on the interaction
116 | P847T | disrupting interaction strength
117 | E848A | with no effect
118 | E848K | with no effect
119 | S849A | with no effect
120 | S849E | with no effect
121 | S849K | with no effect
122 | D850A | with no effect
123 | D850E | with no effect
124 | D850K | with no effect
125 | L851A | with no effect
126 | L851E | with no effect
127 | L851K | with no effect
128 | E852A | with no effect
129 | E852K | with no effect
130 | E853A | with no effect
131 | E853K | with no effect
132 | R854A | with no effect
133 | R854E | with no effect
134 | R854K | with no effect
135 | S855A | with no effect
136 | S855E | with no effect
137 | S855K | with no effect
138 | V856A | with no effect

Row | Variant | effect of a mutation on the interaction
139 | V856E | with no effect
140 | V856K | with no effect
141 | E857A | with no effect
142 | E857K | with no effect
143 | Q858A | with no effect
144 | Q858E | with no effect
145 | Q858K | with no effect
146 | D859A | with no effect
147 | D859E | with no effect
148 | D859K | with no effect
149 | S860A | with no effect
150 | S860E | with no effect
151 | S860K | with no effect
152 | T861A | with no effect
153 | T861E | with no effect
154 | T861K | with no effect
155 | E862A | with no effect
156 | E862K | with no effect
157 | L863A | with no effect
158 | L863E | with no effect
159 | L863K | with no effect
160 | F864A | with no effect
161 | F864E | with no effect

Row | Variant | effect of a mutation on the interaction
162 | F864K | with no effect
163 | T865A | with no effect
164 | T865E | with no effect
165 | T865K | with no effect
166 | N866A | with no effect
167 | N866E | with no effect
168 | N866K | with no effect
169 | H867A | with no effect
170 | H867E | with no effect
171 | H867K | with no effect
172 | R868A | with no effect
173 | R868E | with no effect
174 | R868K | with no effect
175 | H869A | with no effect
176 | H869E | with no effect
177 | H869K | with no effect
178 | L870A | with no effect
179 | L870E | with no effect
180 | L870K | with no effect
181 | T871A | with no effect
182 | T871E | with no effect
